Experimental data: PMC8015430 (Immunity, 2021)

B1: COVA1-16 (antibody, V domains shown)
VH: QVQLVQSGAEVKKPGASVKVSCKASGYTFTSYYMHWVRQAPGQGLEWMGIINSSGGSTSYAQKFQGRVTMTRDTSTSTVYMELSSLRSEDTAVYYCARPPRNYYDRSGYYQRAEYFQHWGQGTLVTVSS
VL: DIQLTQSPSSLSASVGDRVTITCQASQDISNYLNWYQQRPGKAPKLLIYDASNLETGVPSRFSGSGSGTDFTFTISSLQPEDIATYYCQQYDNPPLTFGGGTKLEIK
notes: IgG; RBD Class 4
B2: COVA2-39 (antibody, V domains shown)
VH: QVQLVETGGGLIQPGGSLRLSCAASGFTVSSNYMSWVRQAPGKGLEWVSVIYTGGTTYYADSVKGRFTISRDNSKNTLYLQMNSLRAEDTAVYYCARAHVDTAMVESGAFDIWGQGTRVTVSS
VL: QSALTQPASVSGSPGQSITISCTGTSSDVGSYNLVSWYQQHPGKAPKLMIYEVTKRPSGVSNRFSGSKSGNTASLTISGLQAEDEADYYCCSYAGSSTWVFGGGTKLTVL
notes: IgG; RBD Class 2

Biological target: T1, Recombinant Stabilized SARS-CoV-2 Spike (SARS-CoV-2, Wuhan-Hu-1 reference (wave …, UniProt P0DTC2, stabilised))
T1 construct: also called Pre-fusion, stabilized and uncleaved SARS-CoV-2 Spike (pcDNA3.1+)
Assay: ELISA
Conditions: both partners purified

Row | Binder | binding result
1 | B1 | binds
2 | B2 | binds
